Test results reported in patent publication US9012398B2.

Biological target: human GLP-1 receptor (human) (UniProt P43220)

Substance | GLP1cAMPma (3693) [EC50 (nM)] Mean Value
N--ε^20-{2-(2-(2-(2-[2-(2-(4-(hexadecanoylamino)-4- carboxybutyrylamino)ethoxy)ethoxy]acetyl)ethoxy)ethoxy)acetyl)}- [Leu^14,Gln^27,Gln^28,Lys^20]Exendin-4-amide (from UniProt P26349) (peptide) | 0.093 nM
N-epsilon20-{2-(2-(2-(2-[2-(2-(4-(hexadecanoylamino)-4-(S)- carboxybutyrylamino)ethoxy)ethoxy]acetyl)ethoxy)ethoxy)acetyl)}- [[Aib2,Lys20,Gln28]Exendin-4-amide (from UniProt P26349) (peptide) | 0.0095 nM
N-ε^12-(2-(2-(2-(2-(2-(2-(2-(2-(2-Octadecanoylamino) ethoxy)ethoxy)acetylamino)ethoxy)ethoxy)acetylamino)ethoxy)ethoxy)acetyl)) [Lys^12,Leu^14,Arg^27,Gln^28]Exendin-4-(1-39)-amide (from UniProt P26349) (peptide) | 0.0035 nM
N-ε^12-[2-(2-[2-(2-[2-(2-[4-(17-carboxyheptadecanoylamino)-4(S)- carboxybutyrylamino]ethoxy)ethoxy]acetylamino)ethoxy]ethoxy)acetyl] [Lys^12,Leu^14,Arg^27,Gln^28]Exendin-4-(1-39)-amide (from UniProt P26349) (peptide) | 0.22 nM
N-ε^12-[2-(2-[2-(2-[2-(2-[4-(hexadecanoylamino)-4(S)- carboxybutyrylamino]ethoxy)ethoxy]acetylamino)ethoxy]ethoxy)acetyl] [Lys^12,Leu^14,Arg^27,Gln^28]Exendin-4-(1-39)-amide (from UniProt P26349) (peptide) | 0.006 nM
N-ε^14-(2-(2-2-(2-(2-(4-(hexadecanoylamino)-4-(S)- carboxybytyrylamino)ethoxy)ethoxy)acetylamino)ethoxy)ethoxy)acetyl [Arg^12,Lys^l4,Val^27,Arg^28]Exendin-4-(1-39)-amide (from UniProt P26349) (peptide) | 0.037 nM
N-ε^14-(2-(2-(2-(2-(2-(2-(2-(2-(2- (Octadecanoylamino)ethoxy)ethoxy)acetylamino)ethoxy)ethoxy)acetyl- amino)ethoxy)ethoxy)acetyl)[Arg^12,Lys^14,Val^27,Arg^28]Exendin-4-(1-39)- amide (from UniProt P26349) (peptide) | 0.088 nM
N-ε^14-(2-(2-(2-(2-(2-(2-(4-(Octadecanoylamino)-4(S)- carboxybutyrylamino)ethoxy)ethoxy)acetylamino)ethoxy)ethoxy)acetyl [Arg^12,Lys^14,Val^27,Arg^28]Exendin-4-(1-39)-amide (from UniProt P26349) (peptide) | 0.059 nM
N-ε^14-(2-(2-(2-(2-(2-(2-(17- carboxyheptadecanoylamino)ethoxy)ethoxy)acetylamino)ethoxy) ethoxy)acetyl[Arg^12,Lys^14,Val^27,Arg^28]Exendin-4-(1-39)-amide (from UniProt P26349) (peptide) | 3.65 nM
N-ε^20-2-(2-(2-(2-(2-(2-(4-(Hexadecanoylamino)-4(S)- carboxybutyrylamino)ethoxy)ethoxy)acetylamino)ethoxy) ethoxy)acetyl[Arg^12,27,Leu^14,Lys^20,Gln^28]Exendin-4-(1-39)-peptide amide (from UniProt P26349) | 0.033 nM
N-ε^20-(2-(2-(2-(2-(2-(2-(2-(2-(2- (Octadecanoylamino)ethoxy)ethoxy)acetylamino)ethoxy)ethoxy)acetyl- amino)ethoxy)ethoxy)acety))[Arg^12,27,28,Leu^14,Lys^20 Exendin-4(1- 39)amide (from UniProt P26349) (peptide) | 0.007 nM
N-ε^20-(2-(2-(2-(2-(2-(2-(17- carboxyheptadecanoylamino)ethoxy)ethoxy)acetylamino)ethoxy) ethoxy)acetyl)[Arg12,Leu^14,Arg^27,Gln^28,Lys^20]Exendin-4 (1-39)amide (from UniProt P26349) (peptide) | 5.45 nM
N-ε^20-(2-(2-(2-(2-(2-(2-(17- carboxyheptadecanoylamino)ethoxy)ethoxy)acetylamino)ethoxy) ethoxy)acetyl[Aib^2,Lys^20,Ala^29,Ser(O-benzyl)^39]Exendin-4-(1-39)-amide (from UniProt P26349) (peptide) | 0.23 nM
N-ε^20-[2-(2-[2-(2-[2-(2-[4-(17-Carboxyheptadecanoylamino)-4(S)- carboxybutyrylamino]ethoxy)ethoxy]acetylamino)ethoxy]ethoxy)acetyl] [Aib^2;Gln^28,Lys^20]exendin-4(1-39)amide (from UniProt P26349) (peptide) | 0.1 nM
N-ε^20-[2-(2-[2-(2-[2-(2-[4-(17-Carboxyheptadecanoylamino)-4(S)- carboxybutyrylamino]ethoxy)ethoxy]acetylamino)ethoxy]ethoxy)acetyl] [Imidazoylpropionyl^1;Gin^28,Lys^20]exendin-4(1-39)amide (from UniProt P26349) (peptide) | 2.18 nM
N-ε^20-[2-(2-[2-(2-[2-(2-[4-(hexadecanoylamino)-4(S)- carboxybutyrylamino]ethoxy)ethoxy]acetylamino)ethoxy]ethoxy)acetyl] [Imidazoylpropionyl^1,Lys^20,Gln^28]Exendin-4-(1-39)-amide (from UniProt P26349) (peptide) | 0.042 nM
N-ε^20-[2-(2-[2-(2-[2-(2-[4-(octadecanoylamino)-4(S)- carboxybutyrylamino]ethoxy)ethoxy]acetylamino)ethoxy]ethoxy)acetyl] [Aib^2,Lys^20,Ala^29,Ser(O-benzyl)^39]Exendin-4-(1-39)-amide (from UniProt P26349) (peptide) | 0.006 nM
N-ε^20-[2-(2-[2-(2-[2-(2-[4-Octadecanoylamino-4(S)- carboxybutyrylamino]ethoxy)ethoxy]acetylamino)ethoxy]ethoxy)acetyl] [Arg^12,27,Gln^28,Leu^14,Lys^20 Exendin-4(1-39)amide (from UniProt P26349) (peptide) | 0.044 nM
N-ε^20-[2-(2-[2-(2-[2-(2-[4-hexadecanoylamino-4(S)- carboxybutyrylamino]ethoxy)ethoxy]acetylamino)ethoxy]ethoxy)acetyl] [Arg^12,27,28,Leu^14,Lys^20]Exendin-4(1-39)amide (from UniProt P26349) (peptide) | 0.027 nM
N-ε^20-{2-(2-(2-(2-[2-(2-(4-(hexadecanoylamino)-4- carboxybutyrylamino)ethoxy)ethoxy]acetyl)ethoxy)ethoxy)acetyl)}- [Gln^12,27,Leu^14,Lys^20,Gln^28]Exendin-4-amide (from UniProt P26349) (peptide) | 0.027 nM
N-ε^20-{2-(2-(2-(2-[2-(2-(4-(hexadecanoylamino)-4- carboxybutyrylamino)ethoxy)ethoxy]acetylamino)ethoxy)ethoxy) acetyl)}-[Gln^28,Lys^20]Exendin-4-amide (from UniProt P26349) (peptide) | 0.033 nM
N-ε^20-{2-(2-(2-(2-[2-(2-(4-(hexadecanoylamino)-4- carboxybutyrylamino)ethoxy)ethoxy]acetylamino)ethoxy)ethoxy) acetyl)}-[Leu^14,Gln^28,Lys^20]Exendin-4-amide (from UniProt P26349) (peptide) | 0.023 nM
N-ε^20-{2-(2-(2-(2-[2-(2-(4-(hexadecanoylamino)-4- carboxybutyrylamino)ethoxy)ethoxy]acetylamino)ethoxy)ethoxy)acetyl)}- [Gln^12,Leu^14,Gln^28,Lys^20]Exendin-4-amide (from UniProt P26349) (peptide) | 0.021 nM
N-ε^27-2-(2-2-(2-(2-(2-(2-(2-(2- (Octadecanoylamino)ethoxy)ethoxy)acetylamino)ethoxy)ethoxy)acetyl- amino)ethoxy)ethoxy)acetyl[Arg^12,Leu^14,Lys^27,Leu^28]Exendin-4- (1-39)-amide (from UniProt P26349) (peptide) | 0.049 nM
N-ε^27-2-(2-2-(2-(2-(2-(4-(Hexadecanoylamino)-4(S)- carboxybutyrylamino)ethoxy)ethoxy)acetylamino)ethoxy) ethoxy)acetyl[Arg^12,Leu^14,Lys^27,Leu^28]Exendin-4-(1-39)-peptide amide (from UniProt P26349) | 0.093 nM
N-ε^27-2-(2-2-(2-(2-(2-(4-(Octadecanoylamino)-4(S)- carboxybutyrylamino)ethoxy)ethoxy)acetylamino)ethoxy)ethoxy)acetyl [Arg^12,Leu^14,Lys^27,Leu^28]Exendin-4-(1-39)-amide (from UniProt P26349) (peptide) | 0.14 nM
N-ε^27-2-(2-(2-(2-(2-(2-(4-(Octadecanoylamino)-4(S)- carboxybutyrylamino)ethoxy)ethoxy)acetylamino)ethoxy) ethoxy)acetyl[Arg^12,Leu^14,Lys^27,Ala^29]Exendin-4-(1-39)-amide (from UniProt P26349) (peptide) | 0.24 nM
N-ε^27-(2-(2-(2-(2-(2-(2-(2-(2-(2- (Octadecanoylamino)ethoxy)ethoxy)acetylamino)ethoxy)ethoxy)acetyl- amino)ethoxy)ethoxy)acetyl)[Arg^12,Leu^14,Lys^27,Ala^29]Exendin-4-(1- 39)-amide (from UniProt P26349) (peptide) | 0.08 nM
N-ε^27-(2-(2-(2-(2-(2-(2-(17- carboxyheptadecanoylamino)ethoxy)ethoxy)acetylamino)ethoxy) ethoxy)acetyl)[Leu^14,Arg^12,Lys^27]Exendin-4(1-39)amide (from UniProt P26349) (peptide) | 0.35 nM
N-ε^27-(2-(2-(2-(2-(2-(2-(17- carboxyheptadecanoylamino)ethoxy)ethoxy)acetylamino)ethoxy) ethoxy)acetyl[Arg^12,Leu^14,Lys^27,Ala^29]Exendin-4-(1-39)-amide (from UniProt P26349) (peptide) | 5.6 nM
